The record followed here is the supplement of paper PMC12042874.

± gives the uncertainty stated by the source.

A short description of this data set: amyloid nucleation score (Sup35N fusion, yeast selection) (log enrichment); library NNK1; higher = more nucleation; inactive = no reads after selection. In a few lines: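 Psi-negative yeast expressed Sup35N fused to peptides of 20 random codons. They were induced 24 hours with 100 μM copper sulfate, grown 7 days at 30°C without adenine and uracil, and their plasmid inserts from input and output were Illumina-sequenced. The nucleation score is the DiMSum log enrichment of output over input reads, centred on the mode score of non-aggregating sequences. Sequences with under 100 input reads were excluded.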
As to HLKGHFEGWGLIICVSSGFD, the amyloid nucleation score came to 2.08 ± 0.14. For the substance PVGWGNTACSLRCTGHVSYV, the amyloid nucleation score was -0.604 ± 1.7. With MYGNES the figure was -0.02 ± 0.4. SGGYLADYPLRVNLLFFNFV had an amyloid nucleation score of 0.431 ± 0.43. VLKDFYNDDKRFQRRL returned an amyloid nucleation score of 0.421 ± 0.3. Take LKCLFLIAIFYIINCCSNLS: the amyloid nucleation score entry was “inactive”.

PMNNIVFYGGYLISAFRVRL came in with an amyloid nucleation score of 6.46 ± 0.089. Consider YWYFYISDRVKDNSCSNWSL, for which the amyloid nucleation score was -1.03 ± 0.47. For KIATKGNIF, the amyloid nucleation score is -0.951 ± 0.53.

For the substance SSDSVSLYYLISYTPFGRFN, the amyloid nucleation score entry is “inactive”. Consider KEHRPWGCW, for which the amyloid nucleation score entry is “inactive”. Then SLDDPFRENCLLESFSLMLS, with -0.552 ± 1.9; and YSSLLVTLAEAWCIRLSNRR, with 0.665 ± 0.84. With ILEYWSISKKPYMIVMGGRV the figure was 0.15 ± 0.34; with VTWGSSPMQKFSMVQIKS, 0.564 ± 0.48. As for DSFVRT, the amyloid nucleation score result was “inactive”.

VRHCTQINSPFYYDFN gave an amyloid nucleation score of -0.318 ± 0.3. LAEWRLYLRRTVWYLRILIR came in with an amyloid nucleation score of -0.066 ± 1.

LLAVAGPLLWLYRYMISFIS came in with an amyloid nucleation score of 0.071 ± 0.97.

The substance LFSWFWNEI gave an amyloid nucleation score of 0.658 ± 0.72. Regarding NGKVYVELKEWDLRVVGSLR, the amyloid nucleation score came out at 4.44 ± 0.095. FEGAW returned an amyloid nucleation score of -0.187 ± 1. The substance SVDRMAYRMCMRNVRLNLCT returned an amyloid nucleation score of 0.962 ± 0.37. Take GAGHGELDKWNPSDGPQLLW: the amyloid nucleation score was -0.096 ± 0.77. In the case of VGSKVYMTSAAMYFVNRGFV, the amyloid nucleation score worked out at 6.11 ± 0.081.

For RLDISSYSLFGINQVWA, the amyloid nucleation score was determined as 2.63 ± 0.17. For the substance FCQGYRLGS, the amyloid nucleation score was found to be 0.19 ± 0.48. IYRGSNRLRRIGWEFNVALD registered an amyloid nucleation score of -0.819 ± 0.33. For the substance SLLSYMFQGDDVKCHGSAVL, the amyloid nucleation score was 1.01 ± 0.76. In turn, AVELI gave an amyloid nucleation score of -0.436 ± 0.34. Consider HFTIKF, for which the amyloid nucleation score is 1.06 ± 0.27. SCAWRYNICTLISVRWVCK registered an amyloid nucleation score of 0.756 ± 0.34. With FALIRN the figure was -0.368 ± 1.7; with PMICFGWALIRYVTFQDLPV, 0.276 ± 0.45; with GIPCT, 0.38 ± 0.72. TFASTS came in with an amyloid nucleation score of 0.002 ± 0.36.

CFGCF: the amyloid nucleation score is 2.23 ± 0.17. RGTDLSSYTSFVC gave an amyloid nucleation score of 0.28 ± 0.41. The substance EALNPVVLPSTN showed an amyloid nucleation score of 1.55 ± 0.14. The substance AKVYSGIPWWNFSTFLRGEV yielded an amyloid nucleation score of -0.668 ± 1.4. Regarding HCILHKANFRGFTHSSYEVG, the amyloid nucleation score is 4.68 ± 0.1. On to YVDDFPRQSAGFIDT, for which the amyloid nucleation score came to 2 ± 0.57. Then NRAECSFVCTEYVNICK, with -0.313 ± 0.43; and LIHSRKVLSSMTYIEGPLTS, with 0.166 ± 0.34; and MDKSELK, with 0.128 ± 0.86. Then LPWRRGWSFSTLVSLTGLSA, with 0.353 ± 0.31. Turning to FSSLMLLTGEYSLSIWCKRS, the amyloid nucleation score worked out at 1 ± 0.8. For the substance YARIAKRTFLVYSQNEARFE, the amyloid nucleation score stood at 0.843 ± 0.98. Then TVRRVGISWNWYIKTLYGSD, with -1.12 ± 0.88; and WVGFRQCLSASMCAPDPQTD, with 0.748 ± 0.8. With KFNPLLITKFSAWECGLVVG, the amyloid nucleation score was -1.55 ± 1.9.

As for SKSDQSWYFL, the amyloid nucleation score was -0.227 ± 0.68. In the case of ILSERHWVFELYGLCGWRRE, the amyloid nucleation score was 0.493 ± 0.52.

In turn, KVHKLIDNYMLRSRWY gave an amyloid nucleation score of -0.139 ± 0.9. Substance IWLKWCNSPLVRLSMGNSSF displayed an amyloid nucleation score of 0.206 ± 0.27. AVYDLCD had an amyloid nucleation score of 0.816 ± 0.74. Regarding HKNLQIVTFFVEYVSETPPG, the amyloid nucleation score is -1.05 ± 1. SIGFLYCPLMSCASNFKWSK: the amyloid nucleation score worked out at 4.55 ± 0.068. Take MKQALMGVVMIHWGGRSRV: the amyloid nucleation score was determined as 0.687 ± 0.54. With RLKGSPHVLL, the amyloid nucleation score was -1.69 ± 1.2. For ETTRNKAMNTFMLPFSQSCK, the amyloid nucleation score was found to be 0.39 ± 0.56. Regarding HRFSCG, the amyloid nucleation score result is “inactive”. VPTYGFGLEIFKDFSMNR gave an amyloid nucleation score of -0.926 ± 0.44. With AYINSSDSRSDMSRNWY the figure was 0.47 ± 1.1; with GYNVAFILHTTVKCVCVEM, 0.757 ± 0.41. As to LTRDEGPIEDKNVEARFRVS, the amyloid nucleation score stood at 0.098 ± 0.31. On to IILRFVCDI, for which the amyloid nucleation score entry was “inactive”.

Take PKNKAAVKNSMALPIARQ: the amyloid nucleation score is -0.192 ± 0.73. The substance YIPQSPDDSFWEVMFYLFLS had an amyloid nucleation score of -0.43 ± 1.2. With SVIVLFTIRRSWRPHSFRES the figure was 0.94 ± 0.32; with NVLTVCCVGLIKSSVSLIEN, 8.418 ± 0.065. For the substance ANMYY, the amyloid nucleation score was -0.279 ± 1.1.

Regarding STERKYLSLDKSWNVRLVLF, the amyloid nucleation score was 1.61 ± 0.23. For the substance GIENLRTDV, the amyloid nucleation score was found to be 1.34 ± 0.37.

Substance TVRSYRSGRCYNFIVNRERA yielded an amyloid nucleation score of -0.177 ± 0.75.

Regarding TFEYDT, the amyloid nucleation score worked out at 0.332 ± 0.61. Turning to NSMNLNG, the amyloid nucleation score entry is “inactive”.

WWSYQF: the amyloid nucleation score was found to be 0.725 ± 0.39. With DRCVQCTALTASTGR the figure was -0.113 ± 0.94. Substance ENLGGWAPTLCYRRT registered an amyloid nucleation score of 0.187 ± 0.4.

On to VLSDSDINMRLEKEFYVIIS, for which the amyloid nucleation score entry is “inactive”. For the substance IIREFSEGWVISKLDQD, the amyloid nucleation score was -0.446 ± 0.3. In the case of IIEFML, the amyloid nucleation score result is “inactive”. As for GIRFLWPFLIPRLHKVIARR, the amyloid nucleation score result is “inactive”. The substance HNKCSFLYMSQYARHRMYSS gave an amyloid nucleation score of 0.218 ± 0.5. FLRRIGMGYIRLRVLGSIFL came in with an amyloid nucleation score of 0.854 ± 0.49. Consider MKMRFVVSLMNSERSSGRNE, for which the amyloid nucleation score was 0.9 ± 0.5. For LIALLLAWDMYI, the amyloid nucleation score turned out to be 0.18 ± 0.32. On to NFGNVNFVYVTWMVAESSAC, for which the amyloid nucleation score is 5.915 ± 0.057. For the substance YYNVYTTYTASVWGTYRWNV, the amyloid nucleation score was -1.45 ± 0.82. In turn, PHAHDTWYGYA yielded an amyloid nucleation score of -1.13 ± 2.4. Substance NKKESGWY gave an amyloid nucleation score of -0.387 ± 0.97. In turn, QNDTYLI had an amyloid nucleation score of 0.022 ± 1.1. As to QNLVLVKPEVFGTSRLLCGH, the amyloid nucleation score came to 0.184 ± 0.53.

HGFNPNWGSRVKGSMVRV: the amyloid nucleation score was -0.044 ± 0.47. In turn, GGVFMMSSDSTQIIRYVKSR registered an amyloid nucleation score of 0.752 ± 0.56. In turn, SRHVLLPISFGTV displayed an amyloid nucleation score of 0.377 ± 0.61. In the case of CVNLFSLLFWTLAIRCLNFR, the amyloid nucleation score is -0.025 ± 0.49.

The substance TNLLSLMMFDSKCIISEGIM returned an amyloid nucleation score of -0.567 ± 1.7.

Take VLSVSCVRYISGVRERWYVL: the amyloid nucleation score turned out to be 1.23 ± 0.6. Take AYGLNARIHTATGECLLGYA: the amyloid nucleation score is -0.143 ± 0.24. Consider LHDQCLAHGQWCNTWGK, for which the amyloid nucleation score is -0.022 ± 0.39. Substance VMCAGQESESIRGGYSEVNG came in with an amyloid nucleation score of 1.17 ± 0.39.

Regarding SYNVMCVGYCIC, the amyloid nucleation score was determined as 3.4 ± 0.12.

As for MLFPSVSKRLNVSALNCKNP, the amyloid nucleation score was -0.083 ± 1.4. FYVGDVITHHWEAELNYSDV showed an amyloid nucleation score of -0.573 ± 1.7. The substance TISLLTHVFLDVLWCGR displayed an amyloid nucleation score of -0.779 ± 0.61. In turn, HQTCCLWSTVVLGV came in with an amyloid nucleation score of 3.04 ± 0.15. Then YINLVLGFSYVFLLGLANRM, with -0.773 ± 0.24; and HCNSNVTWKV, with 0.414 ± 0.63. In turn, GFNMLC came in with an amyloid nucleation score of 0.224 ± 0.5. In turn, FAQECLFMSVDLCLR came in with an amyloid nucleation score of 0.125 ± 1.1. VMPSSELYF gave an amyloid nucleation score of 0.349 ± 0.39. As for GSYECFHHLYCGWQSLLWAN, the amyloid nucleation score worked out at 0.854 ± 0.39. FRVSSFWYWYVHLQGYYGTV registered an amyloid nucleation score of 1.01 ± 0.8. As to YHIGTVVIPWLKVNRIYRGI, the amyloid nucleation score worked out at 4.96 ± 0.081. In turn, WPLRESCGICERRAWCRSAY had an amyloid nucleation score of 0.923 ± 0.63. Then GTVPNVRKYPCFLCSMRR, with -1.28 ± 1.4; and TSSAFVCVENTLWTEVVEPM, with 0.411 ± 0.55; and CAACSSQLYCEWFMNALLGM, with -0.513 ± 0.44. GASRVTNYRELLMASANHDG: the amyloid nucleation score was -0.413 ± 0.45. Then NNHKLAFTVVTPIEDHFRMR, with 0.674 ± 0.46; and ATRVPPFMEVLSPYH, with “inactive”. On to VDSRSWTNLMWSRVAKWLMG, for which the amyloid nucleation score was determined as 0.155 ± 0.51. In the case of PFYRNLFSWAGYILLCGCHE, the amyloid nucleation score is -0.775 ± 0.75. For the substance KLMLLLSNSMNQRSDYPRFQ, the amyloid nucleation score is -0.327 ± 0.44. IVIAVMSGSYVSLKSWFLRH had an amyloid nucleation score of -1.5 ± 1.3. Turning to PQQEGISLSDALPLPEEGRV, the amyloid nucleation score is 0.535 ± 0.4. GTLYWLHASV yielded an amyloid nucleation score of 0.617 ± 0.47. As for EGRSWW, the amyloid nucleation score is -0.691 ± 1.4. For the substance DVLLSFEYLD, the amyloid nucleation score entry was “inactive”. For SYVVTVLHNWVWEEGDLEYE, the amyloid nucleation score turned out to be 4.36 ± 0.11.

Regarding FKVNRHLPELHLCKGTEWKL, the amyloid nucleation score entry is “inactive”. On to LTGRVFRSYRYGCTGQIAVD, for which the amyloid nucleation score was -0.624 ± 0.56. DLFSTVFNWMTNCPFKNSW yielded an amyloid nucleation score of -0.32 ± 0.49. With LVRWSLLRFFL the figure was 1.89 ± 0.59; with CHIWPDVLNVCAILGDLRKR, 1.18 ± 0.16.

The substance IDKGLHALLSTLLSINVSFC showed an amyloid nucleation score of 2.95 ± 0.094. Then QGIYTD, with -0.921 ± 0.78. With ILENTVCSIFVSVVIANVGL, the amyloid nucleation score worked out at 1.94 ± 0.53. Take ALTRS: the amyloid nucleation score was -0.074 ± 0.49.
